{"source": "paper PMC9302817", "about": "“VEGF receptor heterodimers and homodimers are differentially expressed in neuronal and endothelial cell types” (PLoS ONE, 2022)", "binders": {"B1": {"name": "VEGFR1 (mouse, endogenous in MAEC, MVEC, trigeminal ganglion neurons and mouse tissues) (receptor, UniProt P35969 23-1333, looked up)", "chain": "YGSGSKLKVPELSLKGTQHVMQAGQTLFLKCRGEAAHSWSLPTTVSQEDKRLSITPPSACGRDNRQFCSTLTLDTAQANHTGLYTCRYLPTSTSKKKKAESSIYIFVSDAGSPFIEMHTDIPKLVHMTEGRQLIIPCRVTSPNVTVTLKKFPFDTLTPDGQRITWDSRRGFIIANATYKEIGLLNCEATVNGHLYQTNYLTHRQTNTILDVQIRPPSPVRLLHGQTLVLNCTATTELNTRVQMSWNYPGKATKRASIRQRIDRSHSHNNVFHSVLKINNVESRDKGLYTCRVKSGSSFQSFNTSVHVYEKGFISVKHRKQPVQETTAGRRSYRLSMKVKAFPSPEIVWLKDGSPATLKSARYLVHGYSLIIKDVTTEDAGDYTILLGIKQSRLFKNLTATLIVNVKPQIYEKSVSSLPSPPLYPLGSRQVLTCTVYGIPRPTITWLWHPCHHNHSKERYDFCTENEESFILDPSSNLGNRIESISQRMTVIEGTNKTVSTLVVADSQTPGIYSCRAFNKIGTVERNIKFYVTDVPNGFHVSLEKMPAEGEDLKLSCVVNKFLYRDITWILLRTVNNRTMHHSISKQKMATTQDYSITLNLVIKNVSLEDSGTYACRARNIYTGEDILRKTEVLVRDSEAPHLLQNLSDYEVSISGSTTLDCQARGVPAPQITWFKNNHKIQQEPGIILGPGNSTLFIERVTEEDEGVYRCRATNQKGAVESAAYLTVQGTSDKSNLELITLTCTCVAATLFWLLLTLFIRKLKRSSSEVKTDYLSIIMDPDEVPLDEQCERLPYDASKWEFARERLKLGKSLGRGAFGKVVQASAFGIKKSPTCRTVAVKMLKEGATASEYKALMTELKILTHIGHHLNVVNLLGACTKQGGPLMVIVEYCKYGNLSNYLKSKRDLFCLNKDAALHMELKKESLEPGLEQGQKPRLDSVSSSSVTSSSFPEDRSVSDVEGDEDYSEISKQPLTMEDLISYSFQVARGMEFLSSRKCIHRDLAARNILLSENNVVKICDFGLARDIYKNPDYVRRGDTRLPLKWMAPESIFDKVYSTKSDVWSYGVLLWEIFSLGGSPYPGVQMDEDFCSRLKEGMRMRTPEYATPEIYQIMLDCWHKDPKERPRFAELVEKLGDLLQANVQQDGKDYIPLNAILTRNSGFTYSTPTFSEDLFKDGFADPHFHSGSSDDVRYVNAFKFMSLERIKTFEELSPNSTSMFEDYQLDTSTLLGSPLLKRFTWTETKPKASMKIDLRIASKSKEAGLSDLPRPSFCFSSCGHIRPVQDDESELGKESCCSPPPDYNSVVLYSSPPA", "notes": "VEGF receptor 1 (VEGFR-1, flt-1), endogenous in mouse aortic and venous endothelial cell lines, thy1-YFP mouse trigeminal ganglion neurons and mouse tissues; Endogenous protein; also called flt-1; Flt-1; source: endogenous, MAEC and MVEC lysates; endogenous, mouse tissue lysates (thoracic aorta, portal vein, dorsal root ganglia, trigeminal ganglia, cornea); endogenous, fixed MAEC, MVEC and …"}}, "key": {"[1]": {"target": "B1", "experiment": "proximity ligation; Duolink PLA on fixed MVEC; anti-VEGFR1 and anti-VEGFR2 with PLUS and MINUS probes (the same antibody with both probes for homodimers); signal only within 40 nm", "conditions": "partners not purified"}, "[2]": {"target": "the molecule itself", "experiment": "proximity ligation; Duolink PLA on fixed MVEC; anti-VEGFR1 and anti-VEGFR2 with PLUS and MINUS probes (the same antibody with both probes for homodimers); signal only within 40 nm"}, "[3]": {"target": "B1", "experiment": "proximity ligation; Duolink PLA on fixed mouse trigeminal ganglion (TG) neuronal cells; anti-VEGFR1 and anti-VEGFR2 with PLUS and MINUS probes (the same antibody with both probes for homodimers); signal only within 40 nm", "conditions": "partners not purified"}, "[4]": {"target": "the molecule itself", "experiment": "proximity ligation; Duolink PLA on fixed mouse trigeminal ganglion (TG) neuronal cells; anti-VEGFR1 and anti-VEGFR2 with PLUS and MINUS probes (the same antibody with both probes for homodimers); signal only within 40 nm"}}, "data": [{"binder": "VEGFR2 (mouse, endogenous in MAEC, MVEC, trigeminal ganglion neurons and mouse tissues) (receptor, UniProt P35918 20-1345, looked up, Endogenous protein; also called KDR; flk-1; source: endogenous, MAEC and MVEC lysates; endogenous, mouse tissue lysates (thoracic aorta, portal vein, dorsal root ganglia, trigeminal ganglia, cornea); endogenous, fixed MAEC, MVEC and trigeminal ganglion neuronal cells) ASVGLPGDFLHPPKLSTQKDILTILANTTLQITCRGQRDLDWLWPNAQRDSEERVLVTECGGGDSIFCKTLTIPRVVGNDTGAYKCSYRDVDIASTVYVYVRDYRSPFIASVSDQHGIVYITENKNKTVVIPCRGSISNLNVSLCARYPEKRFVPDGNRISWDSEIGFTLPSYMISYAGMVFCEAKINDETYQSIMYIVVVVGYRIYDVILSPPHEIELSAGEKLVLNCTARTELNVGLDFTWHSPPSKSHHKKIVNRDVKPFPGTVAKMFLSTLTIESVTKSDQGEYTCVASSGRMIKRNRTFVRVHTKPFIAFGSGMKSLVEATVGSQVRIPVKYLSYPAPDIKWYRNGRPIESNYTMIVGDELTIMEVTERDAGNYTVILTNPISMEKQSHMVSLVVNVPPQIGEKALISPMDSYQYGTMQTLTCTVYANPPLHHIQWYWQLEEACSYRPGQTSPYACKEWRHVEDFQGGNKIEVTKNQYALIEGKNKTVSTLVIQAANVSALYKCEAINKAGRGERVISFHVIRGPEITVQPAAQPTEQESVSLLCTADRNTFENLTWYKLGSQATSVHMGESLTPVCKNLDALWKLNGTMFSNSTNDILIVAFQNASLQDQGDYVCSAQDKKTKKRHCLVKQLIILERMAPMITGNLENQTTTIGETIEVTCPASGNPTPHITWFKDNETLVEDSGIVLRDGNRNLTIRRVRKEDGGLYTCQACNVLGCARAETLFIIEGAQEKTNLEVIILVGTAVIAMFFWLLLVIVLRTVKRANEGELKTGYLSIVMDPDELPLDERCERLPYDASKWEFPRDRLKLGKPLGRGAFGQVIEADAFGIDKTATCKTVAVKMLKEGATHSEHRALMSELKILIHIGHHLNVVNLLGACTKPGGPLMVIVEFCKFGNLSTYLRGKRNEFVPYKSKGARFRQGKDYVGELSVDLKRRLDSITSSQSSASSGFVEEKSLSDVEEEEASEELYKDFLTLEHLICYSFQVAKGMEFLASRKCIHRDLAARNILLSEKNVVKICDFGLARDIYKDPDYVRKGDARLPLKWMAPETIFDRVYTIQSDVWSFGVLLWEIFSLGASPYPGVKIDEEFCRRLKEGTRMRAPDYTTPEMYQTMLDCWHEDPNQRPSFSELVEHLGNLLQANAQQDGKDYIVLPMSETLSMEEDSGLSLPTSPVSCMEEEEVCDPKFHYDNTAGISHYLQNSKRKSRPVSVKTFEDIPLEEPEVKVIPDDSQTDSGMVLASEELKTLEDRNKLSPSFGGMMPSKSRESVASEGSNQTSGYQSGYHSDDTDTTVYSSDEAGLLKMVDAAVHADSGTTLRSPPV", "values": [{"measurement": "mean PLA fluorescence intensity per cell", "setting": "[1]", "value": 99600}, {"measurement": "mean PLA fluorescence intensity per cell", "setting": "[2]", "value": "2.58e+06"}, {"measurement": "mean PLA fluorescence intensity per cell", "setting": "[3]", "value": 268000}, {"measurement": "mean PLA fluorescence intensity per cell", "setting": "[4]", "value": 706000}]}, {"binder": "B1", "values": [{"measurement": "mean PLA fluorescence intensity per cell", "setting": "[2]", "value": 43300}, {"measurement": "mean PLA fluorescence intensity per cell", "setting": "[4]", "value": 2200}]}]}
